Test results as given in US12287344B2, “Fret-based method to measure seeding activity of misfolded protein species in biological samples” (MAX-DELBRÜCK-CENTRUM FÜR MOLEKULARE MEDIZIN IN DER …, priority 2018, dated 2025).

Test system: Ex1Q48-CyPet/-YPet
Assay: FRASE assay: effect of added preformed fibrils/seeds on Ex1Q48-CyPet/-YPet polymerization
Type: biochemical, human
Conditions: sonicated Ex1Q48 seeds (~1,250 kDa); sensor 1:1 mixture, 1.2 μM
Method: (B) Effects of small, preformed Ex1Q48 seeds (1250 kDa) on Ex1Q48-CyPet and -YPet (1:1 mixture, total conc. 1.2 μM) co-aggregation. Data are mean±SEM (n=5).
(D) Effects of non-polyQ fibrils on Ex1Q48-CyPet and -YPet (1:1 mixture, total conc. 1.2 μM) co-aggregation. Data are mean±SD of triplicates.
Spontaneous Ex1Q48 aggregation was initiated by addition of 14 U PreScission protease (GE Healthcare) per nmol purified GST-Ex1Q48 fusion protein (2 μM). The aggregation reaction was performed in 50 mM Tris-HCl pH 7.4, 150 mM NaCl, 1 mM EDTA and 1 mM DTT at 25° C. and constant agitation (450 rpm) for 24 h. […]
Purified GST-Ex1Q48-CyPet and GST-Ex1Q48-YPet were diluted in aggregation buffer at an equimolar ratio to a final concentration of 1.2 μM (0.6 μM each) with 14 U PSP per nmol sensor proteins if not stated otherwise. […] For quantification of seeding-competent HTT species in tissue samples, the sensor-protein mixture was supplemented with up to 10% (v/v) tissue homogenate. Fluorescence signals were measured every 20 min following a 5 s pulse of vertical shaking with a Tecan M200 fluorescence plate reader at 25° C. for up to 48 h. CyPet donor fluorescence was measured at excitation (Ex): 435 nm/emission (Em): 475 nm; YPet acceptor fluorescence at Ex: 500 nm/Em: 530 nm; the FRET channel (DA) was recorded at Ex: 435 nm/Em: 530 nm. […]

B1: Ex1Q48 seeds: preformed recombinant mutant huntingtin exon 1 (48 glutamines) aggregates, sonicated, ~1,250 kDa (protein)
chain: MATLEKLMKAFESLKSFQQQQQQQQQQQQQQQQQQQQQQQQQQQQQQQQQQQQQQQQQQQQQQQQPPPPPPPPPPPQLPQPPPQAQPLLPQLQPPPPPPPPPPGPAAAEEPLHRP
  threshold for detecting seeds in FRASE assay: ~60 fM
